Assay results from article PMC6891888 (Immunity, 2019).

Target: T1, HIV-1 Env on the cell surface (HIV-1, strain BG505 (clade A), wild type, UniProt Q2N0S6)
T1 construct: also called cell-surface HIV-1 Env; source: 293T, transfected, on cells
Experiment: flow cytometry on cells
Settings: one partner purified

B1: 1C2 (rabbit monoclonal antibody, IgG) (antibody, V domains shown)
VH: QSLEESGGDLVKPGASLTLTCTASGFSFGWNDYMSWVRQAPGKGLEWIGCIYAGSTRSTYYANWAKGRLTISKTSSTAVTLQMTSLTAADTATYFCARGAVTYDGLGGAYLKHFNLWGPGTLVTVSS
VL: AIKMTQTPSSVSAAVGGTVTVNCRASEDIESYLAWYQQKPGQPPKLLIYDTSKLASGVPSRFKGSGSGTQFALTISGVQCDDAATYYCLYGYISSDRIDFGFGGGTELVVK
notes: also called bNAb 1C2; vax-bNAb 1C2
B1: binds.
